Measurements as given in PMC8509808, “Characterization of the Chimeric PriB-SSBc Protein” (International Journal of Molecular Sciences, 2021).

B1: dT60 (ssDNA)
DNA: TTTTTTTTTTTTTTTTTTTTTTTTTTTTTTTTTTTTTTTTTTTTTTTTTTTTTTTTTTTT
B2: dT55 (ssDNA)
DNA: TTTTTTTTTTTTTTTTTTTTTTTTTTTTTTTTTTTTTTTTTTTTTTTTTTTTTTT

What was measured:
Settings in all cases: protein: recombinant; tags: none (tag-free); chain copies: 2; label: 5'-32P
[1] = molecular target: T1, PriB-SSBc (chimera KpPriB 1-98 fused to KpSSB 112-174) (Klebsiella pneumoniae, UniProt A6THB2 1-98+A6TGW7:112-174, internal_change); assay: EMSA; monomer conc.; 1 complex; EMSA: 20 mM Tris-HCl pH 8.0, 100 mM NaCl, 25 C, 30 min, 1.7 nM 32P-ssDNA; 8% native PAGE in TBE at 4 C
[2] = molecular target: T1, PriB-SSBc (chimera KpPriB 1-98 fused to …); assay: EMSA; ND; up to 5 uM protein; EMSA: 20 mM Tris-HCl pH 8.0, 100 mM NaCl, 25 C, 30 min, 1.7 nM 32P-ssDNA; 8% native PAGE in TBE at 4 C
[3] = molecular target: T1, PriB-SSBc (chimera KpPriB 1-98 fused to …); assay: EMSA; monomer conc.; 2 complexes; EMSA: 20 mM Tris-HCl pH 8.0, 100 mM NaCl, 25 C, 30 min, 1.7 nM 32P-ssDNA; 8% native PAGE in TBE at 4 C

Binder	apparent K (half saturation) [1] [nM]	also measured
TTTTTTTTTTTTTTTTTTTTTTTTTTTTTTTTTTTTTTTT (ssDNA) [dT40]	840 ± 60	
TTTTTTTTTTTTTTT (ssDNA) [dT15]		binding result [2]: no binding
TTTTTTTTTTTTTTTTTTTTTTTTTTTTTT (ssDNA) [dT30]	940 ± 80	
B1		apparent K (half saturation) [3]: 230 ± 20 nM
TTTTTTTTTTTTTTTTTTTTTTTTT (ssDNA) [dT25]	1150 ± 120	
B2		apparent K (half saturation) [3]: 330 ± 30 nM
TTTTTTTTTTTTTTTTTTTTTTTTTTTTTTTTTTTTTTTTTTTTTTTTTT (ssDNA) [dT50]	290 ± 20	
TTTTTTTTTTTTTTTTTTTT (ssDNA) [dT20]	2120 ± 180	
